Measured values: article PMC11602162, “A compact stem-loop DNA aptamer targets a uracil-binding pocket in the SARS-CoV-2 nucleocapsid RNA-binding domain”

Columns and labels:
[1] = target: N-NTD (SARS-CoV-2 (Wuhan-Hu-1), UniProt P0DTC9 46-174); assay: competition fluorescence anisotropy; probe N11; 10 mM Tris-HCl pH 7.4, 150 mM NaCl, 1 mM MgCl2; FA with 0.1 mg/ml BSA at 25 C; BLI with 0.05% Tween-20; SEC at ambient temperature; conditions: protein: recombinant, tags: N-terminal 6xHis removed by HRV 3C
[2] = target: T1, N protein full-length (SARS-CoV-2 (Wuhan-Hu-1), UniProt P0DTC9 1-419); assay: BLI; immobilized DNA, avidity; 10 mM Tris-HCl pH 7.4, 150 mM NaCl, 1 mM MgCl2; FA with 0.1 mg/ml BSA at 25 C; BLI with 0.05% Tween-20; SEC at ambient temperature; conditions: protein: recombinant, tags: 6xHis-thioredoxin removed by HRV 3C, chain copies: 2, hairpin
[3] = target: T1, N protein full-length; assay: fluorescence anisotropy; Hill slope 0.91; 10 mM Tris-HCl pH 7.4, 150 mM NaCl, 1 mM MgCl2; FA with 0.1 mg/ml BSA at 25 C; BLI with 0.05% Tween-20; SEC at ambient temperature; conditions: protein: recombinant, tags: 6xHis-thioredoxin removed by HRV 3C, chain copies: 2, label: […], 5' biotin in BLI, hairpin, 2 bp stem
[4] = target: T2, N-NTD (SARS-CoV-2 (Wuhan-Hu-1), UniProt P0DTC9 46-174); assay: competition fluorescence anisotropy; probe N11; 10 mM Tris-HCl pH 7.4, 150 mM NaCl, 1 mM MgCl2; […]; BLI with 0.05% Tween-20; […]
[5] = target: T1, N protein full-length; assay: fluorescence anisotropy; Hill slope 2.3; 10 mM Tris-HCl pH 7.4, 150 mM NaCl, 1 mM MgCl2; FA with 0.1 mg/ml BSA at 25 C; BLI with 0.05% Tween-20; SEC at ambient temperature; conditions: protein: recombinant; tags: 6xHis-thioredoxin removed by HRV 3C; chain copies: 2; hairpin
[6] = target: T2, N-NTD; assay: fluorescence anisotropy; 1 mM Mg2+; 10 mM Tris-HCl pH 7.4, 150 mM NaCl, 1 mM MgCl2; […]; BLI with 0.05% Tween-20; […]
[7] = target: T2, N-NTD; assay: DSF; 10 mM Tris-HCl pH 7.4, 150 mM NaCl, 1 mM MgCl2; […]; BLI with 0.05% Tween-20; […]
[8] = target: T2, N-NTD; assay: competition fluorescence anisotropy; 10 mM Tris-HCl pH 7.4, 150 mM NaCl, 1 mM MgCl2; […]; BLI with 0.05% Tween-20; […]
[9] = target: T2, N-NTD; assay: fluorescence anisotropy; 10 mM Tris-HCl pH 7.4, 150 mM NaCl, 1 mM MgCl2; […]; BLI with 0.05% Tween-20; […]

## UCAUGUUAUGGUUGA (structured_RNA) [SL9 RNA]
[1]; stem-loop
  Ki: 15.4 µM

## CATCGGATTG (ssDNA) [A58-10]
[2]; label: […], 5' biotin in BLI, […], 2 bp stem
  Kd: 3.77 nM
[3]
  Kd: 24.9 nM

## TCGGACATCGGATTGTCTGA (ssDNA) [A58-20]
[2]
  Kd: 0.0101 nM
[4]
  Ki: 50.5 nM
[5]
  Kd: 78.2 nM
[6]
  Kd: 101 nM

## ATCGGATT (ssDNA) [A58-8]
[4]
  binding result: no binding

## TTTTTTTTTTTTTTT (ssDNA) [poly-dT15]
[1]
  Ki: 4.12 µM

## UCGGACAUCGGAUUGUCUGA (ssRNA) [A58-20_RNA]
[7]
  binding signal: -0.5 C (Tm shift)
[8]
  Ki: 90.8 µM

## TCGGACATCGGATTGTCTGA (XNA, 2'-fluoro-dG at position 10 (loop G3)) [A58-20-2'FG3]
[9]
  Kd: 74 nM

B1: A58 (A58-58) (ssDNA)
DNA: GCTGGATGTCACCGGATTGTCGGACATCGGATTGTCTGAGTCATATGACACATCCAGC
[4]
  Ki: 9.92 nM

## GUCCCUCAUGUGGGC (structured_RNA) [SL10 RNA]
[1]; stem-loop
  Ki: 38.7 µM

## TCGGACATCGGATTGTCTGA (ssDNA, fluorescein-dT (i6-FAMK) at position 13 (loop T6)) [A58-20-iT6FAM]
[9]
  Kd: 74 nM

## TCGGACATTTTTTTGTCTGA (ssDNA) [A58-20 TTTTTT]
[7]
  binding signal: 0.5 C (Tm shift)

## TCGGACATCGGATTGTCCGA (ssDNA) [A58-20_nwb2]
[7]
  binding signal: 4.5 C (Tm shift)
[9]
  Kd: 87.9 nM

## TCGGACATCGGATTGTCTGA (XNA, 2'-fluoro-dG at position 10 (loop G3); i6-FAMK at position 13 (loop T6)) [A58-20-2'FG3-iT6FAM]
[9]
  Kd: 13.9 nM

## TCAGACATCGGATTGTCTGA (ssDNA) [A58-20_nwb1]
[7]
  binding signal: 4.5 C (Tm shift)
[9]
  Kd: 84.9 nM

## UUUUUUUUUUUUUUU (ssRNA) [poly-rU15]
[1]
  Ki: 7.8 µM
